Results reported in patent publication US20260209362A1 (VIB VZW, published 2026).

T1: mouse IL-12Rβ2 expressed on cells (mouse, UniProt P97378 24-874)
T1 construct: HEK293T cells, stably transduced (cDNA NM_008354); also called mIL-12RB2
T1 sequence: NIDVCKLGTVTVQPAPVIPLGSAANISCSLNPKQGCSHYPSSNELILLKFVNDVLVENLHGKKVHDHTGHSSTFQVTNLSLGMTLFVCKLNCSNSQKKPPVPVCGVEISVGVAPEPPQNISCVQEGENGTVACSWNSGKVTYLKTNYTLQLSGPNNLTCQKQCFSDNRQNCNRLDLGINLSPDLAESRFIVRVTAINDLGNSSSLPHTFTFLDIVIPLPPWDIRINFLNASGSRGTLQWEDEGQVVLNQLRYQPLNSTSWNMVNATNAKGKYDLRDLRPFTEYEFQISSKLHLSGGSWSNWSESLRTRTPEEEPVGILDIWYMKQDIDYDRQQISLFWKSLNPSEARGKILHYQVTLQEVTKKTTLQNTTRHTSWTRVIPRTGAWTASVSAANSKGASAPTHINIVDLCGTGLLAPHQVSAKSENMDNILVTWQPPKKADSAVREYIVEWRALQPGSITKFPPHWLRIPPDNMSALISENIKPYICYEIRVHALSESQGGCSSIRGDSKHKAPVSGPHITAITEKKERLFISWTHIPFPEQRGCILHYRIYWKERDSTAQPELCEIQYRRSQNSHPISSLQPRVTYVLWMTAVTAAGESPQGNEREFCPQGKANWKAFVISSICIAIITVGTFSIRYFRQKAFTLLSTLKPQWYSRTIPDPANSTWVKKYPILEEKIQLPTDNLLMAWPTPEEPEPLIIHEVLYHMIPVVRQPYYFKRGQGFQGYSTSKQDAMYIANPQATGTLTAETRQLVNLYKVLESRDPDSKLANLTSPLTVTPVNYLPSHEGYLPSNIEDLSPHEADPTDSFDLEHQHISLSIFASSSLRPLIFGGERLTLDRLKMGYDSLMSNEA

T2: biotinylated recombinant human IL-12Rβ2 (human, UniProt Q99665 24-622, random biotinylated)
T2 construct: Recombinant protein produced in-house, biotinylated; also called hIL-12RB2; human IL-12RB2
T2 sequence: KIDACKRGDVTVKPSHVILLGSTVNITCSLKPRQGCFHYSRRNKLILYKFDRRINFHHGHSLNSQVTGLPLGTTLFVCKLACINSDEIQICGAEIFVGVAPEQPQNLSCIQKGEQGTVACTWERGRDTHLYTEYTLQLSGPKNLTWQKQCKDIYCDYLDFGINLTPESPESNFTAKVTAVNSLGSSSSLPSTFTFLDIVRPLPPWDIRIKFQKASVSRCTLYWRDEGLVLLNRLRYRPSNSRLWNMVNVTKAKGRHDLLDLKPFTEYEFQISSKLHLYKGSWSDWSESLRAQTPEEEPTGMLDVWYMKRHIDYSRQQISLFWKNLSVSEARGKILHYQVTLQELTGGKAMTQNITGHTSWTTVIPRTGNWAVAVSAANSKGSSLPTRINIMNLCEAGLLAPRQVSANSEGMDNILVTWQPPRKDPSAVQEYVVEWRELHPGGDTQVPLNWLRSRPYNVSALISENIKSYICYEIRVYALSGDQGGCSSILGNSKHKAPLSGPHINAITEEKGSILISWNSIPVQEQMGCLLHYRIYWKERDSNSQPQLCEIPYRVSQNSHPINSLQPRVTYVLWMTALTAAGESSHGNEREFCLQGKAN

T3: biotinylated recombinant mouse IL-12Rβ2 (mouse, UniProt P97378 24-637, random biotinylated)
T3 construct: Recombinant protein produced in-house, biotinylated; also called mIL-12RB2; mouse IL-12RB2
T3 sequence: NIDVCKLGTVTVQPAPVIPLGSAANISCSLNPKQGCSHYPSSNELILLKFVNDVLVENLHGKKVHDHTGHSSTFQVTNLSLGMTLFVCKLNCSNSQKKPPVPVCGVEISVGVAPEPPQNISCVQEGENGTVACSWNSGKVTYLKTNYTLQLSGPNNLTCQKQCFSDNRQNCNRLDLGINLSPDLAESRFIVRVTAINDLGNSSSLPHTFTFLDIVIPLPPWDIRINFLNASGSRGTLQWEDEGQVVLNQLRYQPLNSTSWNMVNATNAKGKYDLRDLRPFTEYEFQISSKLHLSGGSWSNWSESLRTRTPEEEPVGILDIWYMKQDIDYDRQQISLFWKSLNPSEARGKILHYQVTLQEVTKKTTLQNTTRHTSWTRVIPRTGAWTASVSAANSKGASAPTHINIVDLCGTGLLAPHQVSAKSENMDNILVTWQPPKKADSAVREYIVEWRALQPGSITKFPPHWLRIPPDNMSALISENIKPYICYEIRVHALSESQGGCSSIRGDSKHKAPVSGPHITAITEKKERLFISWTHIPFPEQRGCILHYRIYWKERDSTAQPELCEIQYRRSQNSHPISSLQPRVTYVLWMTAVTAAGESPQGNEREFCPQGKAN


What was measured:
[1] = molecular target: T1, mouse IL-12Rβ2 expressed on cells; assay: flow cytometry, P.E. VHH on HEK293T cells stably expressing mIL-12RB2
[2] = molecular target: T2, biotinylated recombinant human IL-12Rβ2; assay: ELISA, periplasmic extract on biotinylated hIL-12Rβ2, signal over control wells
[3] = molecular target: T3, biotinylated recombinant mouse IL-12Rβ2; assay: ELISA, periplasmic extract on biotinylated mIL-12Rβ2, signal over control wells

% cells bound [1] [%] | dMFI [1] | ELISA binding hIL-12RB2/control [2] [ratio] | ELISA binding mIL-12RB2/control [3] [ratio] | Binder
18.3 | 110 | – | – | anti-IL-12Rβ2 VHH clone 3CRM45 (VHH, not shown: small tags and cut ends, tested as periplasmic extract; also called 20458) VHH: QVQLQESGGGLVQAGGSLRLSCTASGSIFAIDDMYWYRQAPGKEREFVAYITATNSANYLDSVNGRFTISRDNAKNSVYLQMNSLKPEDTAVYYCNAKQIVGFQIDEYWGQGTQVTVSS
3.47 | 21 | – | – | anti-IL-12Rβ2 VHH clone 3CRH83 (VHH, not shown: small tags and cut ends, tested as periplasmic extract) VHH: QVQLQESGGGLVQAGGSLKLSCAASGNTFSINAMAWYRQAPGQELELVAAISDVGNTIYADSMKGRFTISRGNADNTVYLQMNSLKPEDTATYYCNAGTFYTSPGDSYYRGYDFWGQGTQVTVSS
– | – | 0.971 | 36.3 | anti-IL-12Rβ2 VHH clone 20473 (VHH, not shown: small tags and cut ends, tested as periplasmic extract; also called 2CAM14) VHH: QVQLQESGGGLVQAGDSLRLSCAASGRTFSSYTMGWFRQAPGKEREFVARISQDGGSTYYADSMKGRFTVARDNAKNTVYLQMNSLKPEDTAVYYCAADMIKWGLRVGVDSFKYWGQGTQVTVSS
2.93 | 22 | – | – | anti-IL-12Rβ2 VHH clone 2CRM42 (VHH, not shown: small tags and cut ends, tested as periplasmic extract; also called 20449) VHH: QVQLQESGGGLVQPGESLRLSCQASGRTFSNYRMGWFRQAPGKEREFVAGINWDGGHTYYTDSVKGRFTISRDNAKNTVYLQMNSLKPEDTAVYQCAVRVREYGSSRYEDQFDYWGQGTQVTVSS
19.5 | 100 | – | – | anti-IL-12Rβ2 VHH clone 2CRM28 (VHH, not shown: small tags and cut ends, tested as periplasmic extract) VHH: QVQLQESGGGLVQPGGSLRLSCAASGRAWNEYNMGWFRQAPGKEREFVALIWWSSGNTYYADSVKGRFTISRDKVKNTVYLQMNSLKPEDTAVYYCAAGPTFNKYEYWGQGTQVTVSS
24.9 | 122 | – | – | anti-IL-12Rβ2 VHH clone 2CRM83 (VHH, not shown: small tags and cut ends, tested as periplasmic extract; also called 20451) VHH: QVQLQESGGGLVQPGGSLRLSCAASGFTFSAYAMSWVRQAPGKGLEWVSSISSTGTNPNYADSVKGRFTISRDNAKNTLYLQMNSLKPEDTAVYYCAEAYRNYSPPGQGTQVTVSS
– | – | 1.05 | 14.5 | anti-IL-12Rβ2 VHH clone 20493 (VHH, not shown: small tags and cut ends, tested as periplasmic extract; also called 2CAM62) VHH: QVQLQESGGGLVQAEGSLRLSCVASGRTFSSYGMGWFRQAPGKEREFVTGISSAGSWIGDITSYADSVKGRFTISRDNAKNILYLQMNSLKPEDTAVYYCAAAYHGSRYYVGSTANEYTTWGQGTQVTVSS
– | – | 0.847 | 3.8 | anti-IL-12Rβ2 VHH clone 20530 (VHH, not shown: small tags and cut ends, tested as periplasmic extract; also called 2CAMS7) VHH: QVQLQESGGGLVQAGDSLRLSCAASGRTFSNYNMGWLRQAPGKEREFVTGISSAGSWIGDITSYADSVKGRFTISRDNAKNILYLQMNSLKPEDTAVYYCAAAYHGSRYYVGSTANEYTTWGQGTQVTVSS
– | – | 0.97 | 19.9 | anti-IL-12Rβ2 VHH clone 20506 (VHH, not shown: small tags and cut ends, tested as periplasmic extract; also called 3CAM6) VHH: QVQLQESGGGLVQVGGSLRLSCAPSGRTFSTYAMGWFRQALGKEREVVATISWSGGRIYYTDSVKGRFTISRDNAKNTAYLQMNSLRPDDADVYYCATRGTDYGAWEYWGQGTQVTVSS
32.8 | 166 | – | – | anti-IL-12Rβ2 VHH clone 2CRM40 (VHH, not shown: small tags and cut ends, tested as periplasmic extract; also called 20448) VHH: QVQLQESGGGLVQTGGSLRLSCAASGRTYAMAWFRQAPGKEREFAAVIIGGDRTYYANSVKDRFTISRDNAKETVYLQMNNLKPEDTAVYYCAANRRLYNSGRGYSQSEYEYWGQGTQVTVSS
– | – | 0.956 | 7.26 | anti-IL-12Rβ2 VHH clone 20476 (VHH, not shown: small tags and cut ends, tested as periplasmic extract; also called 2CAM20) VHH: QVQLQESGGGSVQAGGSLRLSCAVFGLSFKDYSMSWFRQAPGKEREFVAGISSGGSWIGDITSYADSVKGRFTISRDNAKNMIYLQMNSLKPDDTGVYYCAAASYGTRYYVGSTANEYTTWGQGTQVTVSS
– | – | 0.994 | 3.96 | anti-IL-12Rβ2 VHH clone 20533 (VHH, not shown: small tags and cut ends, tested as periplasmic extract; also called 2CAMS26) VHH: QVQLQESGGGLVQAGGSLTLSCTASGRTFSSYTTGWFRQAPGKEREFVAGISSGGSWIGDITSYADSVKGRFTISRDNAKNMIYLQMNSLKPDDTGVYYCAAASYGTRYYVGSTANEYTTWGQGTQVTVSS
– | – | 1.04 | 14.2 | anti-IL-12Rβ2 VHH clone 20467 (VHH, not shown: small tags and cut ends, tested as periplasmic extract; also called 2CAM3) VHH: QVQLQESGGGLVQAGGSLRLSCAPSGRTFSTLAMAWFRQAPGKEREVVATISWSGGRTYYADSVKGRFTISRDNAKNTAYLQMNSLRPDDTAVYYCAARGSDYGSYDYWGQGTQVTVSS
– | – | 0.995 | 7.88 | anti-IL-12Rβ2 VHH clone 20489 (VHH, not shown: small tags and cut ends, tested as periplasmic extract; also called 2CAM50) VHH: QVQLQESGGGLVQPGGPLRLSCAPSGRTFSTLAMAWFRQAPGKEREVVATISWSGGRTYYADSVKGRFTISRDNAKNTAFLQMNSLRPDDTAVYYCAARESDYGSYDYWGQGTQVTVSS
– | – | 0.973 | 6.85 | anti-IL-12Rβ2 VHH clone 20486 (VHH, not shown: small tags and cut ends, tested as periplasmic extract; also called 2CAM46) VHH: QVQLQESGGGLVQAGGSLRLSCAPSGRTFSTLAMAWFRQAPGKEREVVATISWSGGRTYYADSVKGRFTISRDNAKNTAFLQMNSLRPDDTAVYYCAARESDYGSYDYWGQGTQVTVSS
– | – | 1.31 | 47.4 | anti-IL-12Rβ2 VHH clone 20512 (VHH, not shown: small tags and cut ends, tested as periplasmic extract; also called 3CAM57) VHH: QVQLQESGGGLVQAGGSLRLSCTPSGRTFSTLAMGWFRQAPGKEREVVATISWSGGRTYYASSVKSRFTISRDNAKNTAYLQMNSLRPDDTAVYYCAARGTDYGAYDYWGQGTQVTVSS
– | – | 1.02 | 20.9 | anti-IL-12Rβ2 VHH clone 20477 (VHH, not shown: small tags and cut ends, tested as periplasmic extract; also called 2CAM27) VHH: QVQLQESGGGLVQAGGSLRLSCAPSGRTFSTYAMGWFRQALGKEREVVATISWSGGRIYYTDSVKGRFTISRDNAKNTAYLQMNSLRPDDTAVYYCAARGTDYGAWEYWGQGTQVTVSS
– | – | 1.06 | 9.41 | anti-IL-12Rβ2 VHH clone 20555 (VHH, not shown: small tags and cut ends, tested as periplasmic extract; also called 3CAMS81) VHH: QVQLQESGGGLVQAGGSLRLSCAPSGRTFSTLAMGWFRQAPGKEREVVATISWSGGRTYYADSVKGRFTISRNNAKNTAYLQMNNLRPDDTAVYYCAARETDYGAYDYWGQGTQVTVSS
